Data on one molecule can be found in patent publication US20260117212, “OPTIMIZED ENGINEERED MEGANUCLEASES HAVING SPECIFICITY FOR THE HUMAN T CELL RECEPTOR ALPHA CONSTANT REGION GENE” (Precision BioSciences, Inc., published 2026).

In data set [1] the target is T1, TRC 1-2L.2307 meganuclease (synthetic construct).
T1 chain: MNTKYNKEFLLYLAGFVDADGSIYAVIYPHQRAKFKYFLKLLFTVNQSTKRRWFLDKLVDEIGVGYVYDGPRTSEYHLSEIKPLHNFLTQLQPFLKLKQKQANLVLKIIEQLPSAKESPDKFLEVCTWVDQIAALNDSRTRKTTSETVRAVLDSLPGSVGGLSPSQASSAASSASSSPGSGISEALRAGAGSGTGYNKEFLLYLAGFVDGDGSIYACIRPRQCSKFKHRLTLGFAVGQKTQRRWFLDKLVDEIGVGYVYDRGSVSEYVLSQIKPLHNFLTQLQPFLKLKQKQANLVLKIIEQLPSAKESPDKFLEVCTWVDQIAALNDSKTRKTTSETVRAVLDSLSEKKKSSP
Briefly: cell_activity; CD3 knockout in primary human T cells; EC90 0.354 ug. Conditions: tags: N-terminal SV40 NLS (mRNA delivered). How it is done:
(§1) In this study, an apheresis sample was drawn from a healthy, informed, and compensated donor, and the T cells were enriched using the CD3 positive selection kit II in accord with the manufacturer's instructions (Stem Cell Technologies). T cells were prepared for editing by stimulating with ImmunoCult anti-CD3/CD28/CD2 (Stem Cell Technologies) for three days in Xuri medium (GE Healthcare) supplemented with fetal bovine serum to 5% (Gemini Bio) and recombinant human IL-2 to 10 ng/ml (Gibco). Stimulated T cells were harvested and counted (Countess II, ThermoFisher) before electroporation was carried out on the Lonza 4-D NucleoFector using a titrated range of mRNA encoding TRC 1-2L.1592 or TRC 1-2L.2307. The concentrations used for this study were 2, 1, 0.5, 0.25, 0.125, and 0.0625 μg of RNA per 1×10⁶ stimulated T cells. Cells were subsequently cultured as above with IL-2 supplemented to 30 ng/ml.
(§2) Using cell counts and frequency of TRAC-edited CAR+ events, the number of CAR T cells produced using each TRC1-2 variant were calculated and plotted in FIG. 7. GraphPad Prism was used to calculate EC50 and EC90 values for TRC 1-2L.1592 (FIG. 7A), and TRC 1-2L.2307 (FIG. 7B).

Data set [2] addresses T2, TRC 1-2L.1592 meganuclease (synthetic construct).
T2 chain: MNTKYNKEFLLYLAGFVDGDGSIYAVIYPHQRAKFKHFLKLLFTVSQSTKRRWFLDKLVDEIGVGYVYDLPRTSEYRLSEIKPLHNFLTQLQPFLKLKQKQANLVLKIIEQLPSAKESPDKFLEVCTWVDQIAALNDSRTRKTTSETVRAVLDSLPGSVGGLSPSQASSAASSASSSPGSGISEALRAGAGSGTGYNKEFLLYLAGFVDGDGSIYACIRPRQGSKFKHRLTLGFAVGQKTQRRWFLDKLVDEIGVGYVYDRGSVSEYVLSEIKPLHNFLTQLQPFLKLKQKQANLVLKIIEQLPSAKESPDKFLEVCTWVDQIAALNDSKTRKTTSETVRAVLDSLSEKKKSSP
Briefly: cell_activity; CD3 knockout in primary human T cells; EC90 0.545 ug. How it is done:
as §1, §2

B1: TRC 1-2 recognition sequence (dsDNA)
DNA 1: TGGCCTGGAGCAACAAATCTGA
DNA 2: TCAGATTTGTTGCTCCAGGCCA
With B1, the EC50 stood at 0.179 ug mRNA per 1e6 cells in data set [1] and 0.372 ug mRNA per 1e6 cells in data set [2].
